Patent publication US20230322953A1 (HARBOUR BIOMED SHANGHAI, published 2023)
Blank lines part the entries; values can stand above or below the binder they belong to.

Tests used:
[1] = target: T1, biotinylated human BCMA-Fc, Avitag recombinant protein (ACRO Biosystems, #BC7-H82F0) (human, UniProt Q02223 1-54, biotinylated); experiment: BLI (Octet Red96e), biotinylated BCMA-Fc on SA sensor, antibody in solution, 1:1 global fit
T1 construct: extracellular domain; Bought protein; also called human BCMA protein; recombinant human BCMA-ECD-Fc; not shown: Fc of the bought fusion protein; Avitag
T1 sequence (looked up): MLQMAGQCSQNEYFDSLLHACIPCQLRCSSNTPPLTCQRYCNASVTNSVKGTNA

[2] = target: T2, human BCMA (human, UniProt Q02223 1-184); experiment: flow cytometry, HEK293T/hBCMA cells
T2 construct: whole, on cells; the cell line is named under assay; also called TNFRSF17; CD269
T2 sequence (looked up): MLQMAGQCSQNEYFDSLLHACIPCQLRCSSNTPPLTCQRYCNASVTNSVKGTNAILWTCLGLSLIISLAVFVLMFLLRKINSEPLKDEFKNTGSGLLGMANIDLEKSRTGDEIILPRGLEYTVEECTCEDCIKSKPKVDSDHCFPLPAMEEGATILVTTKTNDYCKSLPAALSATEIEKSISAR

[3] = target: T2, human BCMA; experiment: flow cytometry, NCI-H929 cells
[4] = target: T3, cynomolgus monkey BCMA (cynomolgus monkey); experiment: flow cytometry, HEK293T/cyno BCMA cells
T3 construct: whole, on cells; also called cyno BCMA; HEK293T/cyno BCMA cells

[5] = target: T2, human BCMA; experiment: cell-based or functional assay
[6] = target: T4, human PD-L1 on cells (CHO-K1/hPDL1; MDA-MB-231) (human, UniProt Q9NZQ7 19-290); experiment: competition FACS: biotinylated PD-1 to CHO-K1/hPDL1 cells (Experiment 2)
T4 construct: whole, on cells
T4 sequence (Q9NZQ7 19-290): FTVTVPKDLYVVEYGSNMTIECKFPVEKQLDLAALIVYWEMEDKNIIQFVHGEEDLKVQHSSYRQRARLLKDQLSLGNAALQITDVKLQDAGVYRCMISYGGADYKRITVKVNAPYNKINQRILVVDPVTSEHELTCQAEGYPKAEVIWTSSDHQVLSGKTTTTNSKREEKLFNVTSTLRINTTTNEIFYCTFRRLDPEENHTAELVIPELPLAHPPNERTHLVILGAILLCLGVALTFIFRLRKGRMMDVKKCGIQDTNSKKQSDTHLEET

[7] = target: T5, human CTLA4 on cells (CHO-K1/hCTLA4; HEK293/hCTLA4; 293F-hCTLA4) (human, UniProt P16410 36-223); experiment: FACS, CHO-K1/hCTLA4 cells (Test 2)
T5 construct: whole, on cells
T5 sequence (P16410 36-223): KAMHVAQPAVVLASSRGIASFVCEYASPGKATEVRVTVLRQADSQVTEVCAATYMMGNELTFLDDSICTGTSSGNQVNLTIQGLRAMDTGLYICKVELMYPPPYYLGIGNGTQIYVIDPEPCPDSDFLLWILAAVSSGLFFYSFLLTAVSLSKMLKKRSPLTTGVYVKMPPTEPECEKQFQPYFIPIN

[8] = target: T4, human PD-L1 on cells (CHO-K1/hPDL1; …); experiment: competition FACS: biotinylated PD-1 to CHO-K1/hPDL1 cells
[9] = target: T4, human PD-L1 on cells (CHO-K1/hPDL1; …); experiment: FACS, CHO-K1/hPDL1 cells (Experiment 2)
[10] = target: T5, human CTLA4 on cells (CHO-K1/hCTLA4; …); experiment: competition FACS: biotinylated B7-1-Fc to CHO-K1/hCTLA4 cells (Test 2)
[11] = target: T4, human PD-L1 on cells (CHO-K1/hPDL1; …); experiment: FACS, MDA-MB-231 cells
[12] = target: T5, human CTLA4 on cells (CHO-K1/hCTLA4; …); experiment: FACS, HEK293/hCTLA4 cells
[13] = target: T5, human CTLA4 on cells (CHO-K1/hCTLA4; …); experiment: competition FACS: biotinylated B7-1-Fc to CHO-K1/hCTLA4 cells (Test 1)
[14] = target: T6, human CTLA4-His protein (ACRO Biosystems, #CT4-H5229) (human, UniProt P16410 36-161); experiment: ELISA, coated hCTLA4-His
T6 construct: extracellular domain; bought; also called hCTLA4-His; human CTLA4 extracellular domain recombinant protein
T6 sequence (P16410 36-161): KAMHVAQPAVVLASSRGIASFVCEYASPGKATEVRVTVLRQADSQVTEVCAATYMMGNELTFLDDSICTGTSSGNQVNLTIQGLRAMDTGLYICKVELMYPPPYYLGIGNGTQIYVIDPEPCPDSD

[15] = target: T5, human CTLA4 on cells (CHO-K1/hCTLA4; …); experiment: cell-based or functional assay
[16] = target: T7, biotinylated human CTLA4-Fc protein (ACRO Biosystems, #CT4-H82F3) (human, UniProt P16410 36-161, biotinylated); experiment: competition ELISA: biotinylated hCTLA4-Fc to coated B7-1-Fc
T7 construct: bought; also called human CTLA4 protein
T7 sequence (P16410 36-161 limits assumed): as the sequence (P16410 36-161) above

[17] = target: T5, human CTLA4 on cells (CHO-K1/hCTLA4; …); experiment: FACS, CHO-K1/hCTLA4 cells (Test 1)

- Kd [1]: 0.162 nM
- koff [1]: 1.93e-05 s⁻¹
- kon [1]: 119000 M⁻¹ s⁻¹
- EC50 [2]: 0.153 nM
- Maximum MFI [2]: 70000
- EC50 [3]: 4.8 nM
- Maximum MFI [3]: 166000
- EC50 [4]: 0.329 nM
- Maximum MFI [4]: 64000
B1: PR000943, anti-BCMA HCAb antibody, clone 1005P16A10 (antibody, human IgG1, V domains shown)
VH: EVQLVETGGGLIQPGGSLRLSCAASGFPVSSNYMSWVRQAPGKGLEWVSVIFSGGRTYYADSVKGRFTISRDNSKNTLYLQMNSLRAEDTAVYYCARRNWIDGRDAFDIWGQGTMVTVSS
notes: Heavy-chain-only antibody (HCAb), human IgG1 Fc, no light chain
- EC50 (nM), target cell killing mediated by antibody internalization (HEK293T/hBCMA cells, a-hFc-MMAF) [5]: 0.492 nM
- Maximum killing rate (%), target cell killing mediated by antibody internalization (HEK293T/hBCMA cells, a-hFc-MMAF) [5]: 78.7%

- IC50 [6]: 0.88 nM
- Maximum inhibition rate (%) [6]: 81.1%
- EC50 [7]: 12 nM
- Maximum MFI [7]: 677 MFI
- fold poorer IC50 than the parent monoclonal antibody [8]: 2 to 3 fold
- EC50 [9]: 0.93 nM
- Maximum MFI [9]: 6710 MFI
- IC50 [10]: 4.49 nM
- Maximum inhibition rate (%) [10]: 99.8%
B2: PR001574 (bispecific antibody, human IgG1, kappa)
chain: EVQLVESGGGLIQPGGSLRLSCAVSGFTVSKNYMSWVRQAPGKGLEWVSVVYSGGSKTYADSVKGRFTISRDNSKNTLYLQMNSLRAEDTAVYYCARAVPHSPSSFDIWGQGTMVTVSSKLEPKSSDKTHTPPPPPRTDIQMTQSPSTLSASVGDRVTVTCRASQSIYIWLAWYQQKPGKAPNLLIYKASSLETGVPSRFSGSGSGTEFTLTISSLQPDDFATYYCQQYYGSSRTFGQGTKVEIKRTVAAPSVFIFPPSDEQLKSGTASVVCLLNNFYPREAKVQWKVDNALQSGNSQESVTEQDSKDSTYSLSSTLTLSKADYEKHKVYACEVTHQGLSSPVTKSFNRGEC
heavy: not shown
notes: PD-L1×CTLA4, structure 4

- IC50 [6]: 0.61 nM
- Maximum inhibition rate (%) [6]: 81%
- EC50 [7]: 8.52 nM
- Maximum MFI [7]: 585 MFI
- fold poorer IC50 than the parent monoclonal antibody [8]: 2 to 3 fold
- EC50 [9]: 0.96 nM
- Maximum MFI [9]: 6610 MFI
- IC50 [10]: 4.88 nM
- Maximum inhibition rate (%) [10]: 99.7%
B3: PR001577 (bispecific antibody, human IgG1, kappa)
chain: B2 chain
heavy: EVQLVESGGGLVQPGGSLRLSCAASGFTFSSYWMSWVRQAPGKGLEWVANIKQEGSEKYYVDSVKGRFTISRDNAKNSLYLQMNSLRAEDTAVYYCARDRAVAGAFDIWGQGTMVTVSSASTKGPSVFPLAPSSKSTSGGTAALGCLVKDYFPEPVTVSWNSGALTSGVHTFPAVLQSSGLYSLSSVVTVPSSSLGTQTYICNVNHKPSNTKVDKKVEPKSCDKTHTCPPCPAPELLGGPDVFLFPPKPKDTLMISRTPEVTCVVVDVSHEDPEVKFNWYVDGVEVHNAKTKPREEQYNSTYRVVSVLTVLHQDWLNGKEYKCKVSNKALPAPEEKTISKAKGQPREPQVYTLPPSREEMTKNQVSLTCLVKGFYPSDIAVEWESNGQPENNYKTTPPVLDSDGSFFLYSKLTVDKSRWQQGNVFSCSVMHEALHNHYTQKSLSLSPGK
notes: PD-L1×CTLA4, structure 4, Fc S239D, I332E

- EC50 [2]: 4.08 nM
- Maximum MFI [2]: 86500
- EC50 [3]: 10.8 nM
- Maximum MFI [3]: 125000
- EC50 [4]: 4.56 nM
- Maximum MFI [4]: 116000
B4: PR000274, anti-BCMA monoclonal antibody CA8-J6M0 (antibody, human IgG1, kappa, V domains shown)
VH: QVQLVQSGAEVKKPGSSVKVSCKASGGTFSNYWMHWVRQAPGQGLEWMGATYRGHSDTYYNQKFKGRVTITADKSTSTAYMELSSLRSEDTAVYYCARGAIYDGYDVLDNWGQGTLVTVSS
VL: DIQMTQSPSSLSASVGDRVTITCSASQDISNYLNWYQQKPGKAPKLLIYYTSNLHSGVPSRFSGSGSGTDFTLTISSLQPEDFATYYCQQYRKLPWTFGQGTKLEIKR
notes: Control antibody; also called Positive control 1; CA8-J6M0 hIgG1
- EC50 (nM), target cell killing mediated by antibody internalization (HEK293T/hBCMA cells, a-hFc-MMAF) [5]: 2.18 nM
- Maximum killing rate (%), target cell killing mediated by antibody internalization (HEK293T/hBCMA cells, a-hFc-MMAF) [5]: 77.2%

- Kd [1]: 0.0253 nM
- koff [1]: 1.07e-05 s⁻¹
- kon [1]: 423000 M⁻¹ s⁻¹
- EC50 [2]: 0.213 nM
- Maximum MFI [2]: 63400
- EC50 [3]: 1.53 nM
- Maximum MFI [3]: 133000
- EC50 [4]: 0.564 nM
- Maximum MFI [4]: 67700
B5: PR001046, anti-BCMA HCAb antibody, clone 1005P63B7 (antibody, human IgG1, V domains shown)
VH: EVQLVETGGGLIQPGGSLRLSCAASGFTVSDNYMTWVRQAPGKGLEWVSVIFSGGNTYYADSVKGRFTISRDNAKNTLYLQMNSLRAEDTALYYCARRNYDDTRGTDVFDIWGQGTMVTVSS
notes: as for B1
- EC50 (nM), target cell killing mediated by antibody internalization (HEK293T/hBCMA cells, a-hFc-MMAF) [5]: 0.571 nM
- Maximum killing rate (%), target cell killing mediated by antibody internalization (HEK293T/hBCMA cells, a-hFc-MMAF) [5]: 71.2%

- EC50 [11]: 0.288 nM
- Maximum MFI [11]: 994 MFI
- EC50 [12]: 5.17 nM
- Maximum MFI [12]: 1910 MFI
B6: PR000401 (bispecific antibody, human IgG1, kappa, L234A L235A)
light: DIQMTQSPSTLSASVGDRVTVTCRASQSIYIWLAWYQQKPGKAPNLLIYKASSLETGVPSRFSGSGSGTEFTLTISSLQPDDFATYYCQQYYGSSRTFGQGTKVEIKRTVAAPSVFIFPPSDEQLKSGTASVVCLLNNFYPREAKVQWKVDNALQSGNSQESVTEQDSKDSTYSLSSTLTLSKADYEKHKVYACEVTHQGLSSPVTKSFNRGEC
chain: EVQLVESGGGLVQPGGSLRLSCAASGFTFSSYWMSWVRQAPGKGLEWVANIKQEGSEKYYVDSVKGRFTISRDNAKNSLYLQMNSLRAEDTAVYYCARDRAVAGAFDIWGQGTMVTVSSASTKGPSVFPLAPSSKSTSGGTAALGCLVKDYFPEPVTVSWNSGALTSGVHTFPAVLQSSGLYSLSSVVTVPSSSLGTQTYICNVNHKPSNTKVDKKVEPKSCDKTHTCPPCPAPEAAGGPSVFLFPPKPKDTLMISRTPEVTCVVVDVSHEDPEVKFNWYVDGVEVHNAKTKPREEQYNSTYRVVSVLTVLHQDWLNGKEYKCKVSNKALGAPIEKTISKAKGQPREPQVYTLPPSREEMTKNQVSLTCLVKGFYPSDIAVEWESNGQPENNYKTTPPVLDSDGSFFLYSKLTVDKSRWQQGNVFSCSVMHEALHNHYTQKSLSLSPGKLEPKSSDKTHTPPPPPRTEVQLVESGGGLIQPGGSLRLSCAVSGFTVSKNYMSWVRQAPGKGLEWVSVVYSGGSKTYADSVKGRFTISRDNSKNTLYLQMNSLRAEDTAVYYCARAVPHSPSSFDIWGQGTMVTVSS
notes: PD-L1×CTLA4, structure 5

- EC50 [11]: 0.259 nM
- Maximum MFI [11]: 841 MFI
- EC50 [12]: 2.4 nM
- Maximum MFI [12]: 1760 MFI
B7: PR000402 (bispecific antibody, human IgG1, kappa, L234A L235A)
light: B6 light
chain: EVQLVESGGGLVQPGGSLRLSCAASGFTFSSYWMSWVRQAPGKGLEWVANIKQEGSEKYYVDSVKGRFTISRDNAKNSLYLQMNSLRAEDTAVYYCARDRAVAGAFDIWGQGTMVTVSSASTKGPSVFPLAPSSKSTSGGTAALGCLVKDYFPEPVTVSWNSGALTSGVHTFPAVLQSSGLYSLSSVVTVPSSSLGTQTYICNVNHKPSNTKVDKKVEPKSCDKTHTCPPCPAPEAAGGPSVFLFPPKPKDTLMISRTPEVTCVVVDVSHEDPEVKFNWYVDGVEVHNAKTKPREEQYNSTYRVVSVLTVLHQDWLNGKEYKCKVSNKALGAPIEKTISKAKGQPREPQVYTLPPSREEMTKNQVSLTCLVKGFYPSDIAVEWESNGQPENNYKTTPPVLDSDGSFFLYSKLTVDKSRWQQGNVFSCSVMHEALHNHYTQKSLSLSPGKLGGGGSGGGGSGGGGSRTEVQLVESGGGLIQPGGSLRLSCAVSGFTVSKNYMSWVRQAPGKGLEWVSVVYSGGSKTYADSVKGRFTISRDNSKNTLYLQMNSLRAEDTAVYYCARAVPHSPSSFDIWGQGTMVTVSS
notes: PD-L1×CTLA4, structure 5

- EC50 [11]: 0.163 nM
- Maximum MFI [11]: 958 MFI
B8: PR000265, anti-PD-L1 91G3H5H3(D54E), hIgG1(N297A) (antibody)
heavy: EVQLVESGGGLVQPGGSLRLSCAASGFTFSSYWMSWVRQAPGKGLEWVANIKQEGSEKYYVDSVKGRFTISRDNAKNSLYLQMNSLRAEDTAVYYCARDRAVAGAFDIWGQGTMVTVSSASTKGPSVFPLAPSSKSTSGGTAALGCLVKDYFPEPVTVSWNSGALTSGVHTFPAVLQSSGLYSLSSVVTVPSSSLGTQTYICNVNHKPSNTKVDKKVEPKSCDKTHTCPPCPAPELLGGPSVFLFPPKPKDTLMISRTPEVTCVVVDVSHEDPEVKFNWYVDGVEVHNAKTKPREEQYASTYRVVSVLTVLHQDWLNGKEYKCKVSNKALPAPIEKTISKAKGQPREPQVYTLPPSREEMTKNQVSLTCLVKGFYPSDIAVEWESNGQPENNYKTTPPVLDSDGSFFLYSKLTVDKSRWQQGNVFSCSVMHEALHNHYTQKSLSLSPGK
light: B6 light

- IC50 [13]: 4.13 nM
- Maximum inhibition rate (%) [13]: 99.7%
- EC50 [14]: 0.599 nM
- Maximum OD450 [14]: 3.01 OD450
- EC50 [7]: 4.64 nM
- Maximum MFI [7]: 722 MFI
- EC50 [12]: 1.15 nM
- Maximum MFI [12]: 2260 MFI
- IC50 [16]: 2.67 nM
- Maximum inhibition rate (%) [16]: 97.2%
- IC50 [10]: 3.01 nM
- Maximum inhibition rate (%) [10]: 100%
- EC50 [17]: 1.69 nM
- Maximum MFI [17]: 1670 MFI
B9: PR000184, anti-CTLA4 heavy-chain antibody CL5v3, hIgG1 (antibody, V domains shown)
VH: EVQLVESGGGLIQPGGSLRLSCAVSGFTVSKNYMSWVRQAPGKGLEWVSVVYSGGSKTYADSVKGRFTISRDNSKNTLYLQMNSLRAEDTAVYYCARAVPHSPSSFDIWGQGTMVTVSS
notes: heavy-chain-only antibody (VH-Fc dimer); also called anti-CTLA4 HCAb monoclonal antibody PR000184
- ADCC killing of 293F-hCTLA4 cells, EC50 [15]: 0.015 nM
- ADCC killing of 293F-hCTLA4 cells, Maximum killing rate (%) [15]: 30.2%
